Assay results as given in publication PMC12990809.

Legend:
Assay in all cases: pulldown
[1] = molecular target: T1, mex-5 (Caenorhabditis elegans) (UniProt Q9XUB2); details: 20 nM protein, 1.5 uM RNA pool; 20 mM HEPES pH 7.8, 70 mM KCl, 10 mM NaCl, 10% glycerol, 2 mM DTT, 0.1 ug/uL BSA; 30 min, 4 C (protocol of this paper; not …); cited from earlier work
T1 sequence: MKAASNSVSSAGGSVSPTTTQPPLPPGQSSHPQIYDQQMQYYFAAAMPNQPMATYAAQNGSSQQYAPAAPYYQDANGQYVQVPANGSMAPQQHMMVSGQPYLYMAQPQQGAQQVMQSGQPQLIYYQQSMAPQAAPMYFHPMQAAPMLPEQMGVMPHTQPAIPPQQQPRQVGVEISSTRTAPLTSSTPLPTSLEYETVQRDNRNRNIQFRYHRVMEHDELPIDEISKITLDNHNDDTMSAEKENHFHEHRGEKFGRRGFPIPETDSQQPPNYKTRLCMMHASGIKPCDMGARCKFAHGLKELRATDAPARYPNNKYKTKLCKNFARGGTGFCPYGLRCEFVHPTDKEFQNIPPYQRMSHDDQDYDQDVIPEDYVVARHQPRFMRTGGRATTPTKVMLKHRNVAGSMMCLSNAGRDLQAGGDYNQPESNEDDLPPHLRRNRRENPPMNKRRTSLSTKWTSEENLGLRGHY

[2] = molecular target: T2, Tb927.6.4960 Q72H;T102A;A103T (Trypanosoma brucei) (UniProt Q586G8); details: 20 nM protein, 1.5 uM RNA pool; 20 mM HEPES pH 7.8, 70 mM KCl, 10 mM NaCl, 10% glycerol, 2 mM DTT, 0.1 ug/uL BSA; 30 min, 4 C
T2 sequence: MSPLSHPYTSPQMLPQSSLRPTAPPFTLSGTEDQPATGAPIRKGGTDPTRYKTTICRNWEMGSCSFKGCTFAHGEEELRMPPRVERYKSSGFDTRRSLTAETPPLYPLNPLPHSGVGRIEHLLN

MSI1 (Homo sapiens) = MSI1 (Homo sapiens) (UniProt O43347); details: 20 nM protein, 1.5 uM RNA pool; 20 mM HEPES pH 7.8, 70 mM KCl, 10 mM NaCl, 10% glycerol, 2 mM DTT, 0.1 ug/uL BSA; 30 min, 4 C (protocol of this paper; not …); cited from earlier work
[3] = molecular target: T3, Tb927.5.810 S125L (Trypanosoma brucei) (UniProt Q57W26); details: 20 nM protein, 1.5 uM RNA pool; 20 mM HEPES pH 7.8, 70 mM KCl, 10 mM NaCl, 10% glycerol, 2 mM DTT, 0.1 ug/uL BSA; 30 min, 4 C
T3 sequence: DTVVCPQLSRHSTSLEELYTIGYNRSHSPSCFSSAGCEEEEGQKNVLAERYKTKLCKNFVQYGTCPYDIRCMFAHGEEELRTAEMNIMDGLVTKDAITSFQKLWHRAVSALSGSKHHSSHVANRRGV

tardbp (Danio rerio) = molecular target: T4, tardbp (Danio rerio) (UniProt A0ACM8Q011); details: 20 nM protein, 1.5 uM RNA pool; 20 mM HEPES pH 7.8, 70 mM KCl, 10 mM NaCl, 10% glycerol, 2 mM DTT, 0.1 ug/uL BSA; 30 min, 4 C
T4 sequence: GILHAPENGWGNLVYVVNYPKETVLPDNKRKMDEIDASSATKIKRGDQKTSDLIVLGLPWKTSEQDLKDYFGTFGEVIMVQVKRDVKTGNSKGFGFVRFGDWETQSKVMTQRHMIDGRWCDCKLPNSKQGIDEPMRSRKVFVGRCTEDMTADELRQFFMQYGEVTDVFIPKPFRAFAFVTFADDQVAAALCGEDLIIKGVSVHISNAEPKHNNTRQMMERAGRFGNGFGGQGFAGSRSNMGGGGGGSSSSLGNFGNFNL

CELF4 (Homo sapiens) = CELF4 (Homo sapiens) (UniProt Q9BZC1); details: 20 nM protein, 1.5 uM RNA pool; 20 mM HEPES pH 7.8, 70 mM KCl, 10 mM NaCl, 10% glycerol, 2 mM DTT, 0.1 ug/uL BSA; 30 min, 4 C (protocol of this paper; not …); cited from earlier work
hnrnpa0b (Danio rerio) = hnrnpa0b (Danio rerio) (UniProt A0A8M1PHH6); details: 20 nM protein, 1.5 uM RNA pool; 20 mM HEPES pH 7.8, 70 mM KCl, 10 mM NaCl, 10% glycerol, 2 mM DTT, 0.1 ug/uL BSA; 30 min, 4 C
[4] = molecular target: u2af2b (Tetraodon nigroviridis) (UniProt H3CRP7); details: 20 nM protein, 1.5 uM RNA pool; 20 mM HEPES pH 7.8, 70 mM KCl, 10 mM NaCl, 10% glycerol, 2 mM DTT, 0.1 ug/uL BSA; 30 min, 4 C
[5] = molecular target: ENSTNIG00000011257 (Tetraodon nigroviridis) (UniProt H3D110); details: 20 nM protein, 1.5 uM RNA pool; 20 mM HEPES pH 7.8, 70 mM KCl, 10 mM NaCl, 10% glycerol, 2 mM DTT, 0.1 ug/uL BSA; 30 min, 4 C
[6] = molecular target: T5, TIA1 (Tetraodon nigroviridis) (UniProt H3D1J1); details: 20 nM protein, 1.5 uM RNA pool; 20 mM HEPES pH 7.8, 70 mM KCl, 10 mM NaCl, 10% glycerol, 2 mM DTT, 0.1 ug/uL BSA; 30 min, 4 C
T5 sequence: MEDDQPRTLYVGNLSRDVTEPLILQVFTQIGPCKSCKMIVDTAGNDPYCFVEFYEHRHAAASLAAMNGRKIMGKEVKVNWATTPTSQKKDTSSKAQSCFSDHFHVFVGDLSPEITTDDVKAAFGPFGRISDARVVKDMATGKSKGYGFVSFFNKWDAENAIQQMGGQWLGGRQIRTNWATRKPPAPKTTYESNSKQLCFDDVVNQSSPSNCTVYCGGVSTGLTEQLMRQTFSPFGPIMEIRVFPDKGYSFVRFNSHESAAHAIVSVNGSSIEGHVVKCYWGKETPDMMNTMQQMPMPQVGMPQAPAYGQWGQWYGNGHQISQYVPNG

[7] = molecular target: T6, tia1 (Tetraodon nigroviridis) (UniProt H3D7H4); details: 20 nM protein, 1.5 uM RNA pool; 20 mM HEPES pH 7.8, 70 mM KCl, 10 mM NaCl, 10% glycerol, 2 mM DTT, 0.1 ug/uL BSA; 30 min, 4 C
T6 sequence: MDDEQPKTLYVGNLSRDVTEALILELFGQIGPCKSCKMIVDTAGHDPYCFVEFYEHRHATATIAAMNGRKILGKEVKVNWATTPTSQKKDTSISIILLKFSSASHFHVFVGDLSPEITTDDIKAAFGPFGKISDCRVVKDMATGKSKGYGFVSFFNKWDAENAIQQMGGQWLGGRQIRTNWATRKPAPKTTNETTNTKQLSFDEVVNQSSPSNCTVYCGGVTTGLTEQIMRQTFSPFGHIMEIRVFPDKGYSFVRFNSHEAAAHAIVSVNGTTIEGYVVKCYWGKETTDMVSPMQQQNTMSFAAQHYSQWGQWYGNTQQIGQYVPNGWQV

[8] = molecular target: T7, PUB1 (Saccharomyces cerevisiae) (UniProt P32588); details: 20 nM protein, 1.5 uM RNA pool; 20 mM HEPES pH 7.8, 70 mM KCl, 10 mM NaCl, 10% glycerol, 2 mM DTT, 0.1 ug/uL BSA; 30 min, 4 C
T7 sequence: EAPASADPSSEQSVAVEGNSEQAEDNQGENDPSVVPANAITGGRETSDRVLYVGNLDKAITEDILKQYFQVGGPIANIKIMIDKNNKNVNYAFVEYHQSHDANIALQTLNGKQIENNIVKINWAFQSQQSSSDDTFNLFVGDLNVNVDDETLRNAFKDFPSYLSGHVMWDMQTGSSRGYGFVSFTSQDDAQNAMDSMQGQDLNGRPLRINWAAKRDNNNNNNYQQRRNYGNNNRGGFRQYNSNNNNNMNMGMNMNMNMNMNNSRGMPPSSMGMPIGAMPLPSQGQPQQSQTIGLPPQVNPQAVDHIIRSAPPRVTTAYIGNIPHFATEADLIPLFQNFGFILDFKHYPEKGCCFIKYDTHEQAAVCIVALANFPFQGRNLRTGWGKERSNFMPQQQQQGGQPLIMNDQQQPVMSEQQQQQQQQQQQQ

CELF4 (Homo sapiens), sequence (Q9BZC1 6-486): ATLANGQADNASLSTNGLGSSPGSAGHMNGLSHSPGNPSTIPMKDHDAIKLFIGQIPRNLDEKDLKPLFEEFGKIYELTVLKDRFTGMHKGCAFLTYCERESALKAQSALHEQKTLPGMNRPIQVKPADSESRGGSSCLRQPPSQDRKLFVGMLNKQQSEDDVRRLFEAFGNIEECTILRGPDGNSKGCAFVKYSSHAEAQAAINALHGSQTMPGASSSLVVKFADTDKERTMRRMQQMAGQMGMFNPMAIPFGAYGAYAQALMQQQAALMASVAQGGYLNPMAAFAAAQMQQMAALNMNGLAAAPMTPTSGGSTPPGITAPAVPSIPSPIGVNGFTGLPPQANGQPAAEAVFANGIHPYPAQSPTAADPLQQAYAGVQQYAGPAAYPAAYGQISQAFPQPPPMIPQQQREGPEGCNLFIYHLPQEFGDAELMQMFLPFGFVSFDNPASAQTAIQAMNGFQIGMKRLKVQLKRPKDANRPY
MSI1 (Homo sapiens), sequence (O43347 1-230): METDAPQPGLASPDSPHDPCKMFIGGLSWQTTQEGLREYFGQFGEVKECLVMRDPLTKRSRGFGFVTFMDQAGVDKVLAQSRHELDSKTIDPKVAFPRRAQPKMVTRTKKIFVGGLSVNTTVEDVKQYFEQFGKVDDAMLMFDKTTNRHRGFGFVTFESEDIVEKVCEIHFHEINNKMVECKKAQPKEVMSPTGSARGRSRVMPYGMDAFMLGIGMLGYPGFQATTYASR
hnrnpa0b (Danio rerio), sequence (A0A8M1PHH6 entry or part of it): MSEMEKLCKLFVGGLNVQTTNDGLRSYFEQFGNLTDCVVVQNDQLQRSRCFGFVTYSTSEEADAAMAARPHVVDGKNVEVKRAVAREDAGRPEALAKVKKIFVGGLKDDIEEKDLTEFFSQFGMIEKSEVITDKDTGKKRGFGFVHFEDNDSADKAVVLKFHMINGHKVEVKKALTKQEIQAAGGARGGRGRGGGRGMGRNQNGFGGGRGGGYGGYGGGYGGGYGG
ENSTNIG00000011257 (Tetraodon nigroviridis), sequence (H3D110 entry or part of it): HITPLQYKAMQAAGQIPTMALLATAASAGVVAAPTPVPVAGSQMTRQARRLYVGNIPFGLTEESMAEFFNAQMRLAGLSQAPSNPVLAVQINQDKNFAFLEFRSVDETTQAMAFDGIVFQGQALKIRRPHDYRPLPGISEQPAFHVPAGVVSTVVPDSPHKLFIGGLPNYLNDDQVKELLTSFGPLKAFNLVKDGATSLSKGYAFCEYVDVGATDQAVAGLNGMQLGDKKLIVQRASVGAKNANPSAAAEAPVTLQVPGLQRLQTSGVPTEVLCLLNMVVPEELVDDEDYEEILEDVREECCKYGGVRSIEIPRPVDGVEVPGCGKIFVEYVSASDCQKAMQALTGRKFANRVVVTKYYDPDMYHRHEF
u2af2b (Tetraodon nigroviridis), sequence (H3CRP7 entry or part of it): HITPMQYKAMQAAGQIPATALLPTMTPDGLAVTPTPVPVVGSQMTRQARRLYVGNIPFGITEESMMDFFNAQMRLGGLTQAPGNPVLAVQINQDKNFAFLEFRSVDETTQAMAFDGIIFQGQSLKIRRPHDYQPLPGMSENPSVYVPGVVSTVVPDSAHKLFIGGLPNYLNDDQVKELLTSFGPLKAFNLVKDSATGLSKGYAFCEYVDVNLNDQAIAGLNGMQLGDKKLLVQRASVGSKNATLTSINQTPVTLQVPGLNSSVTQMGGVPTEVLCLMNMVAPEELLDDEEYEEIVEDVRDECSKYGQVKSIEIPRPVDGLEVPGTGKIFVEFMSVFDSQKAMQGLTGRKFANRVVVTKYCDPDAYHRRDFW

UAAUA [RNAcompete motif RNCMPT00039]
binding signal (z-score (mean of top ten 7-mers)) [1]: 18

UAAUAA [RNAcompete motif RNCMPT00833]
binding signal (z-score (mean of top ten 7-mers)) [2]: 13.9

UAGUUAG [RNAcompete motif RNCMPT00041]
binding signal (z-score (mean of top ten 7-mers)) (MSI1 (Homo sapiens)): 9.05

UAUUAUU [RNAcompete motif RNCMPT00837]
binding signal (z-score (mean of top ten 7-mers)) [3]: 13

UGAAUGA [RNAcompete motif RNCMPT01664]
binding signal (z-score (mean of top ten 7-mers)) (tardbp (Danio rerio)): 9.7

UGUGUG [RNAcompete motif RNCMPT00004]
binding signal (z-score (mean of top ten 7-mers)) (CELF4 (Homo sapiens)): 7.26

UUAGAUAG [RNAcompete motif RNCMPT01667]
binding signal (z-score (mean of top ten 7-mers)) (hnrnpa0b (Danio rerio)): 9.2

UUUUUCC [RNAcompete motif RNCMPT01670]
binding signal (z-score (mean of top ten 7-mers)) [4]: 10.4

UUUUUU [RNAcompete motif RNCMPT01671]
binding signal (z-score (mean of top ten 7-mers)) [5]: 12.3

UUUUUU [RNAcompete motif RNCMPT01672]
binding signal (z-score (mean of top ten 7-mers)) [6]: 8.74

UUUUUUG [RNAcompete motif RNCMPT01674]
binding signal (z-score (mean of top ten 7-mers)) [7]: 6.08

UUUUUUU [RNAcompete motif RNCMPT01685]
binding signal (z-score (mean of top ten 7-mers)) [8]: 11.6
